This note sets out measurements from patent publication US20030022853A1.

In assay [1] the target is pure human c-JUN protein (full length, Promega) (human) (UniProt P05412). The assay is described as follows: laser fluorescence quenching assay, 5 µg antibody + 1 µg c-JUN + 0.075 pmole JD1F/2F, 50 mM NaCl (c-JUN:DNA alone 25%).
Assay [2] has the same target. The assay is described as follows: laser fluorescence quenching assay, 5 µg antibody + 1 µg c-JUN + 0.075 pmole JD1F/2F, 50 mM NaCl.
Assay [3] shares this target. Nature of the assay: laser fluorescence quenching assay, 1 µg antibody + 1 µg c-JUN + 0.075 pmole JD1F/2F, 50 mM NaCl (c-JUN:DNA alone 25%).
Assay [4] has the same target. The assay is described as follows: laser fluorescence quenching assay, 1 µg antibody + 1 µg c-JUN + 0.075 pmole JD1F/2F, 50 mM NaCl.
The target is the same in assay [5]. Nature of the assay: laser fluorescence quenching assay, 750 ng antibody + 250 ng c-JUN + 0.075 pmole JD1F/2F, 50 mM NaCl (c-JUN:DNA alone 11%).
Assay [6] shares this target. Nature of the assay: laser fluorescence quenching assay, 750 ng antibody + 250 ng c-JUN + 0.075 pmole JD1F/2F, 50 mM NaCl.

Sequence of UniProt P05412 (P05412 whole entry): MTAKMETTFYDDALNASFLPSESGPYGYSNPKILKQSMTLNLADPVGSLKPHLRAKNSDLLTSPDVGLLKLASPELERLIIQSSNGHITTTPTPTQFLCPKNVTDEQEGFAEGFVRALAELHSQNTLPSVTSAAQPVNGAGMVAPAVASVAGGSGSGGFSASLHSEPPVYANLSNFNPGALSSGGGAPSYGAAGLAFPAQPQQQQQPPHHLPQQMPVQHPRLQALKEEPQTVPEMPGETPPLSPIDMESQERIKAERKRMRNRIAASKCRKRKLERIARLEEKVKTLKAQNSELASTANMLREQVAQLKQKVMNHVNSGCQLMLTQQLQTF

As to “monoclonal IgG1 antibody, c-JUN (KM-1) (Santa Cruz Biotechnology)”, the decrease in fluorescent intensity compared to DNA alone in assay [1] amounted to 42%; in assay [3], 37%; in assay [5] it was 27%. Moreover, the further decrease in fluorescent intensity from the c-JUN:DNA complex in assay [2] was found to be 17%; in assay [4], 12%; in assay [6], 16%.
